Source: IntAct's records for PubMed 31515488

B1: L-fucose dehydrogenase (Homo sapiens), Q9BPX1 (parent)
chain: MATGTRYAGKVVVVTGGGRGIGAGIVRAFVNSGARVVICDKDESGGRALEQELPGAVFILCDVTQEDDVKTLVSETIRRFGRLDCVVNNAGHHPPPQRPEETSAQGFRQLLELNLLGTYTLTKLALPYLRKSQGNVINISSLVGAIGQAQAVPYVATKGAVTAMTKALALDESPYGVRVNCISPGNIWTPLWEELAALMPDPRATIREGMLAQPLGRMGQPAEVGAAAVFLASEANFCTGIELLVTGGAELGYGCKASRSTPVDAPDIPS
B2: Scaffold protein ILK (Homo sapiens), Q13418 (parent)
chain: MDDIFTQCREGNAVAVRLWLDNTENDLNQGDDHGFSPLHWACREGRSAVVEMLIMRGARINVMNRGDDTPLHLAASHGHRDIVQKLLQYKADINAVNEHGNVPLHYACFWGQDQVAEDLVANGALVSICNKYGEMPVDKAKAPLRELLRERAEKMGQNLNRIPYKDTFWKGTTRTRPRNGTLNKHSGIDFKQLNFLTKLNENHSGELWKGRWQGNDIVVKVLKVRDWSTRKSRDFNEECPRLRIFSHPNVLPVLGACQSPPAPHPTLITHWMPYGSLYNVLHEGTNFVVDQSQAVKFALDMARGMAFLHTLEPLIPRHALNSRSVMIDEDMTARISMADVKFSFQCPGRMYAPAWVAPEALQKKPEDTNRRSADMWSFAVLLWELVTREVPFADLSNMEIGMKVALEGLRPTIPPGISPHVCKLMKICMNEDPAKRPKFDMIVPILEKMQDK
partner: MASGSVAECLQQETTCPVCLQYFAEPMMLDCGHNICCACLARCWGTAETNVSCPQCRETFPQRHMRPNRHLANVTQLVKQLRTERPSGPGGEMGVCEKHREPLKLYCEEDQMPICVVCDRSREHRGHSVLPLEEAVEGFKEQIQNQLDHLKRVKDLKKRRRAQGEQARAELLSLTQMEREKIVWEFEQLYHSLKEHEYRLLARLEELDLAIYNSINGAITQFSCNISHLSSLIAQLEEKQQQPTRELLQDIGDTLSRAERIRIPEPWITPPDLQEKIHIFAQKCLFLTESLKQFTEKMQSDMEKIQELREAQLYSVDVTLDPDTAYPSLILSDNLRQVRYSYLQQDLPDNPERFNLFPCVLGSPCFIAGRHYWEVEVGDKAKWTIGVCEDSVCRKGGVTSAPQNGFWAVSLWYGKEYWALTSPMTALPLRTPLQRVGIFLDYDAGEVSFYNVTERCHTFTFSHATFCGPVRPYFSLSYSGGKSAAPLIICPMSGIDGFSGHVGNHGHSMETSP
B3: EGF-containing fibulin-like extracellular matrix protein 1 (Homo sapiens), Q12805 (parent)
chain: MLKALFLTMLTLALVKSQDTEETITYTQCTDGYEWDPVRQQCKDIDECDIVPDACKGGMKCVNHYGGYLCLPKTAQIIVNNEQPQQETQPAEGTSGATTGVVAASSMATSGVLPGGGFVASAAAVAGPEMQTGRNNFVIRRNPADPQRIPSNPSHRIQCAAGYEQSEHNVCQDIDECTAGTHNCRADQVCINLRGSFACQCPPGYQKRGEQCVDIDECTIPPYCHQRCVNTPGSFYCQCSPGFQLAANNYTCVDINECDASNQCAQQCYNILGSFICQCNQGYELSSDRLNCEDIDECRTSSYLCQYQCVNEPGKFSCMCPQGYQVVRSRTCQDINECETTNECREDEMCWNYHGGFRCYPRNPCQDPYILTPENRCVCPVSNAMCRELPQSIVYKYMSIRSDRSVPSDIFQIQATTIYANTINTFRIKSGNENGEFYLRQTSPVSAMLVLVKSLSGPREHIVDLEMLTVSSIGTFRTSSVLRLTIIVGPFSF
B4: NAD kinase (Homo sapiens), O95544 (parent)
chain: MEMEQEKMTMNKELSPDAAAYCCSACHGDETWSYNHPIRGRAKSRSLSASPALGSTKEFRRTRSLHGPCPVTTFGPKACVLQNPQTIMHIQDPASQRLTWNKSPKSVLVIKKMRDASLLQPFKELCTHLMEENMIVYVEKKVLEDPAIASDESFGAVKKKFCTFREDYDDISNQIDFIICLGGDGTLLYASSLFQGSVPPVMAFHLGSLGFLTPFSFENFQSQVTQVIEGNAAVVLRSRLKVRVVKELRGKKTAVHNGLGENGSQAAGLDMDVGKQAMQYQVLNEVVIDRGPSSYLSNVDVYLDGHLITTVQGDGVIVSTPTGSTAYAAAAGASMIHPNVPAIMITPICPHSLSFRPIVVPAGVELKIMLSPEARNTAWVSFDGRKRQEIRHGDSISITTSCYPLPSICVRDPVSDWFESLAQCLHWNVRKKQAHFEEEEEEEEEG
partner: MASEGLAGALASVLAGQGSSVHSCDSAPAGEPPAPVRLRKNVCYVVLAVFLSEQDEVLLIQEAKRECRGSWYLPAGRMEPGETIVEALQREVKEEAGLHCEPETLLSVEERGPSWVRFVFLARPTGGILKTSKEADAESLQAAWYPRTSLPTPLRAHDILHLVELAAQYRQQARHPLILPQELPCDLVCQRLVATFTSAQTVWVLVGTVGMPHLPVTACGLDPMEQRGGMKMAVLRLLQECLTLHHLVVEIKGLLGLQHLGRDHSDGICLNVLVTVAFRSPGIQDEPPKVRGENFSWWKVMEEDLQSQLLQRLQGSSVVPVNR
B5: Copper homeostasis protein cutC homolog (Homo sapiens), Q9NTM9 (parent)
chain: MKRQGASSERKRARIPSGKAGAANGFLMEVCVDSVESAVNAERGGADRIELCSGLSEGGTTPSMGVLQVVKQSVQIPVFVMIRPRGGDFLYSDREIEVMKADIRLAKLYGADGLVFGALTEDGHIDKELCMSLMAICRPLPVTFHRAFDMVHDPMAALETLLTLGFERVLTSGCDSSALEGLPLIKRLIEQAKGRIVVMPGGGITDRNLQRILEGSGATEFHCSARSTRDSGMKFRNSSVAMGASLSCSEYSLKVTDVTKVRTLNAIAKNILV
B6: Tetratricopeptide repeat protein 5 (Homo sapiens), Q8N0Z6 (parent)
chain: MMADEEEEVKPILQKLQELVDQLYSFRDCYFETHSVEDAGRKQQDVQKEMEKTLQQMEEVVGSVQGKAQVLMLTGKALNVTPDYSPKAEELLSKAVKLEPELVEAWNQLGEVYWKKGDVAAAHTCFSGALTHCRNKVSLQNLSMVLRQLRTDTEDEHSHHVMDSVRQAKLAVQMDVHDGRSWYILGNSYLSLYFSTGQNPKISQQALSAYAQAEKVDRKASSNPDLHLNRATLHKYEESYGEALEGFSRAAALDPAWPEPRQREQQLLEFLDRLTSLLESKGKVKTKKLQSMLGSLRPAHLGPCSDGHYQSASGQKVTLELKPLSTLQPGVNSGAVILGKVVFSLTTEEKVPFTFGLVDSDGPCYAVMVYNIVQSWGVLIGDSVAIPEPNLRLHRIQHKGKDYSFSSVRVETPLLLVVNGKPQGSSSQAVATVASRPQCE
B7: PiggyBac transposable element-derived protein 1 (Homo sapiens), Q96JS3 (parent)
chain: MYEALPGPAPENEDGLVKVKEEDPTWEQVCNSQEGSSHTQEICRLRFRHFCYQEAHGPQEALAQLRELCHQWLRPEMHTKEQIMELLVLEQFLTILPKELQPCVKTYPLESGEEAVTVLENLETGSGDTGQQASVYIQGQDMHPMVAEYQGVSLECQSLQLLPGITTLKCEPPQRPQGNPQEVSGPVPHGSAHLQEKNPRDKAVVPVFNPVRSQTLVKTEEETAQAVAAEKWSHLSLTRRNLCGNSAQETVMSLSPMTEEIVTKDRLFKAKQETSEEMEQSGEASGKPNRECAPQIPCSTPIATERTVAHLNTLKDRHPGDLWARMHISSLEYAAGDITRKGRKKDKARVSELLQGLSFSGDSDVEKDNEPEIQPAQKKLKVSCFPEKSWTKRDIKPNFPSWSALDSGLLNLKSEKLNPVELFELFFDDETFNLIVNETNNYASQKNVSLEVTVQEMRCVFGVLLLSGFMRHPRREMYWEVSDTDQNLVRDAIRRDRFELIFSNLHFADNGHLDQKDKFTKLRPLIKQMNKNFLLYAPLEEYYCFDKSMCECFDSDQFLNGKPIRIGYKIWCGTTTQGYLVWFEPYQEESTMKVDEDPDLGLGGNLVMNFADVLLERGQYPYHLCFDSFFTSVKLLSALKKKGVRATGTIRENRTEKCPLMNVEHMKKMKRGYFDFRIEENNEIILCRWYGDGIISLCSNAVGIEPVNEVSCCDADNEEIPQISQPSIVKVYDECKEGVAKMDQIISKYRVRIRSKKWYSILVSYMIDVAMNNAWQLHRACNPGASLDPLDFRRFVAHFYLEHNAHLSD

Variants of: B1
Conditions: with psa1_human PSMA1, P25786
Sequence of psa1_human PSMA1, P25786 (P25786 whole entry): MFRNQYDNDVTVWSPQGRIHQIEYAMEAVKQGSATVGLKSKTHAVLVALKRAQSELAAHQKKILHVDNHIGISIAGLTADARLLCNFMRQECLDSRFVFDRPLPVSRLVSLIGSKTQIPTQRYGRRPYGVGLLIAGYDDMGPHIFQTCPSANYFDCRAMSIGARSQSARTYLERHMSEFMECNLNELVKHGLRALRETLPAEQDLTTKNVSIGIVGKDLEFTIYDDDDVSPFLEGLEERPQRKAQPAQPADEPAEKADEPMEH

| Variant | effect of a mutation on the interaction |
| --- | --- |
| N31D | with no effect |

Variants of: B1
Conditions: with sr1ip_human SREK1IP1, Q8N9Q2
Sequence of sr1ip_human SREK1IP1, Q8N9Q2 (Q8N9Q2 whole entry): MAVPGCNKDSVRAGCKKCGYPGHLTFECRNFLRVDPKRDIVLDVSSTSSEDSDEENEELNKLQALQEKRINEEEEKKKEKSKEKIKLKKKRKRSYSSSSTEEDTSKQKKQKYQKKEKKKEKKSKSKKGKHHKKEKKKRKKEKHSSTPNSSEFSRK

| Variant | effect of a mutation on the interaction |
| --- | --- |
| N31D | with no effect |

Variants of: B1
Conditions: with ntaq1_human NTAQ1, Q96HA8

| Variant | effect of a mutation on the interaction |
| --- | --- |
| N31D | with no effect |

Variants of: B1
Conditions: with phf1_human PHF1, O43189
Sequence of phf1_human PHF1, O43189 (O43189 whole entry): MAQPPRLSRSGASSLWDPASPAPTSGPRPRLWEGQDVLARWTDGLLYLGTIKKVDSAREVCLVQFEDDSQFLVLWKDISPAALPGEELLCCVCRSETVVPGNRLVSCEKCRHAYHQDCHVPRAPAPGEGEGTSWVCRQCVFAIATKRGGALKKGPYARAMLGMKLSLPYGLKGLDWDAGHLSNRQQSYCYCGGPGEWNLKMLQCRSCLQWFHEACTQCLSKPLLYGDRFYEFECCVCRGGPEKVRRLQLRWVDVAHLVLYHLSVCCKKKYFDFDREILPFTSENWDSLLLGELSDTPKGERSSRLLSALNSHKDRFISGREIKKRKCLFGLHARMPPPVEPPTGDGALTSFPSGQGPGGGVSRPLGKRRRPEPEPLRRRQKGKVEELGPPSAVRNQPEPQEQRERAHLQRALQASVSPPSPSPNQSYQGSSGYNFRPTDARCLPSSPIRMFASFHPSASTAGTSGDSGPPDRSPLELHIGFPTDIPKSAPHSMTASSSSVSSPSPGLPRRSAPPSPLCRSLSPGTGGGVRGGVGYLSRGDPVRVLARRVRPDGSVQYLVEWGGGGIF

| Variant | effect of a mutation on the interaction |
| --- | --- |
| N31D | with no effect |

Variants of: B1
Conditions: with cah8_human CA8, P35219
Sequence of cah8_human CA8, P35219 (P35219 whole entry): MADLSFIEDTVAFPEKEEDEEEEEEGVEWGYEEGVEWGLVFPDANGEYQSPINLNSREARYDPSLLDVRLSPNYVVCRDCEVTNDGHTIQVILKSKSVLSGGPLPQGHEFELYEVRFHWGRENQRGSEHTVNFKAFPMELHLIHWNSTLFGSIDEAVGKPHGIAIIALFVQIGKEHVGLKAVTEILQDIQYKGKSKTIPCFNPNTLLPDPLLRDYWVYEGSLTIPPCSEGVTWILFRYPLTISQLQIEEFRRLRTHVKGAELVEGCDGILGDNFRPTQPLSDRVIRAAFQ

| Variant | effect of a mutation on the interaction |
| --- | --- |
| N31D | with no effect |

Variants of: B2
Conditions: with tri27_human TRIM27, P14373

| Variant | effect of a mutation on the interaction |
| --- | --- |
| V340G | with no effect |

Variants of: B3
Conditions: with sgta_human SGTA

| Variant | effect of a mutation on the interaction |
| --- | --- |
| D49A | with no effect |

Variants of: B3
Conditions: with ric8a_human RIC8A

| Variant | effect of a mutation on the interaction |
| --- | --- |
| D49A | with no effect |

Variants of: B4
Conditions: with nud18_human NUDT18, Q6ZVK8

| Variant | effect of a mutation on the interaction |
| --- | --- |
| R249W | with no effect |

Variants of: B5
Conditions: with lnx1_human LNX1, Q8TBB1
Sequence of lnx1_human LNX1, Q8TBB1 (Q8TBB1 whole entry): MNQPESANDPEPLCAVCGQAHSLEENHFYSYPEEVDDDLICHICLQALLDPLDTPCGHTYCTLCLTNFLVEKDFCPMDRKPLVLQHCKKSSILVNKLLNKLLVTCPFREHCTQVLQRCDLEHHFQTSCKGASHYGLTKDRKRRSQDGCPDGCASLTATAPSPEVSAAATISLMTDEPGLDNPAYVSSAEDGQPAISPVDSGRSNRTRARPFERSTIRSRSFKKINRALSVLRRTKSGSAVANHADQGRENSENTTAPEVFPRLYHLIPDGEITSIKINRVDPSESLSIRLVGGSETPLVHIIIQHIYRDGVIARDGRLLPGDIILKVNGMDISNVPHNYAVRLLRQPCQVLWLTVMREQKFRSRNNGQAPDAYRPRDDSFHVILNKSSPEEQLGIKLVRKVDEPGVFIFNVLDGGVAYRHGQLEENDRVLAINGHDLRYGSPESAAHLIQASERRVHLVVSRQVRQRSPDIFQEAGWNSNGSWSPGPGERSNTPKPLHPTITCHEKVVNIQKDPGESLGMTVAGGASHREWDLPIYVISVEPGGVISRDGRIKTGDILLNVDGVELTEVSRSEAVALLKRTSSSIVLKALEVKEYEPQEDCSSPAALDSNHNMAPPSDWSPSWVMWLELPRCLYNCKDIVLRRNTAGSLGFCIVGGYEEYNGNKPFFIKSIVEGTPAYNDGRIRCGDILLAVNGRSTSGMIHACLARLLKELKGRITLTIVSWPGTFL

| Variant | effect of a mutation on the interaction |
| --- | --- |
| P77L | disrupting interaction strength |

Variants of: B6
Conditions: with kcc2d_human CAMK2D

| Variant | effect of a mutation on the interaction |
| --- | --- |
| G424V | with no effect |

Variants of: B7
Conditions: with znf24_human ZNF24, P17028
Sequence of znf24_human ZNF24, P17028 (P17028 whole entry): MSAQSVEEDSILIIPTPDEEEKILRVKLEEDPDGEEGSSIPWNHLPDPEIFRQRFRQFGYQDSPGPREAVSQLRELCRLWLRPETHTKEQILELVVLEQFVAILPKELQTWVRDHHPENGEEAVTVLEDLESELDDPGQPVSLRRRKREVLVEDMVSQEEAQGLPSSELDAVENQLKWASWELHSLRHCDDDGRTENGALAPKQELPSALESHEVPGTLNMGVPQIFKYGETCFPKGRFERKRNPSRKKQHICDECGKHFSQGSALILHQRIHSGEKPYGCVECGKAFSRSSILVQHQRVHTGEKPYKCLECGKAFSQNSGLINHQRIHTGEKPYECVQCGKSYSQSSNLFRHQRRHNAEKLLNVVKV

| Variant | effect of a mutation on the interaction |
| --- | --- |
| T25A | with no effect |
| I678V | with no effect |

Variants of: B7
Conditions: with traf2_human TRAF2, Q12933
Sequence of traf2_human TRAF2, Q12933 (Q12933 whole entry): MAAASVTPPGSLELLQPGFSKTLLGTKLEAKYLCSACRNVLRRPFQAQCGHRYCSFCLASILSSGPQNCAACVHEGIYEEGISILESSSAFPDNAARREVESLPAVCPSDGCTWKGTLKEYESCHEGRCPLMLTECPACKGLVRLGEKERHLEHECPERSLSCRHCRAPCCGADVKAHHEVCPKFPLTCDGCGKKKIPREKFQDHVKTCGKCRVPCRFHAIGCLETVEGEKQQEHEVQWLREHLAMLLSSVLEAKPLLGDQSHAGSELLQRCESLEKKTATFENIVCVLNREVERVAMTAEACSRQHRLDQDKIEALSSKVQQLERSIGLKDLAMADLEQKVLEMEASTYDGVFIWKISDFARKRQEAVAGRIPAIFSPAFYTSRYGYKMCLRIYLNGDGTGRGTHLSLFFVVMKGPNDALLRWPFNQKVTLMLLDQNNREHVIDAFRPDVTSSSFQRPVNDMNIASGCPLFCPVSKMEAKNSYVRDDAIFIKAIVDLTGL

| Variant | effect of a mutation on the interaction |
| --- | --- |
| G244E | disrupting interaction strength |
| I678V | with no effect |
| P256L | with no effect |
| N398S | with no effect |

Variants of: B7
Conditions: with zsc22_human ZSCAN22, P10073
Sequence of zsc22_human ZSCAN22, P10073 (P10073 whole entry): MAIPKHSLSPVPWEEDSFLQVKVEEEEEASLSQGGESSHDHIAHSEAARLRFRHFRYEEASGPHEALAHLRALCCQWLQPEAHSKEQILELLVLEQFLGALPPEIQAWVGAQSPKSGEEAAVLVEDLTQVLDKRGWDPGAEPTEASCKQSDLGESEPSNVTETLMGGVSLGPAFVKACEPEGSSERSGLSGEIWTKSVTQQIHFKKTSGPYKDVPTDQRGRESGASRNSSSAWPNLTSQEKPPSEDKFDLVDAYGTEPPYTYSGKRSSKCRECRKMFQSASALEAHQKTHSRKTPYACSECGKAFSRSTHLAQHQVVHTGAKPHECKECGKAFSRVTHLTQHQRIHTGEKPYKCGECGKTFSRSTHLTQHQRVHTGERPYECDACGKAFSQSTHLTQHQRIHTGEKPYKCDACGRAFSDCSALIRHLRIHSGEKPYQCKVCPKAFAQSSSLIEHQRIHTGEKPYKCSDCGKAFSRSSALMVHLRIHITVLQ

| Variant | effect of a mutation on the interaction |
| --- | --- |
| G244E | with no effect |
| I678V | with no effect |
| P256L | disrupting interaction strength |
| N398S | with no effect |

Variants of: B7
Conditions: with zn446_human ZNF446, Q9NWS9
Sequence of zn446_human ZNF446, Q9NWS9 (Q9NWS9 whole entry): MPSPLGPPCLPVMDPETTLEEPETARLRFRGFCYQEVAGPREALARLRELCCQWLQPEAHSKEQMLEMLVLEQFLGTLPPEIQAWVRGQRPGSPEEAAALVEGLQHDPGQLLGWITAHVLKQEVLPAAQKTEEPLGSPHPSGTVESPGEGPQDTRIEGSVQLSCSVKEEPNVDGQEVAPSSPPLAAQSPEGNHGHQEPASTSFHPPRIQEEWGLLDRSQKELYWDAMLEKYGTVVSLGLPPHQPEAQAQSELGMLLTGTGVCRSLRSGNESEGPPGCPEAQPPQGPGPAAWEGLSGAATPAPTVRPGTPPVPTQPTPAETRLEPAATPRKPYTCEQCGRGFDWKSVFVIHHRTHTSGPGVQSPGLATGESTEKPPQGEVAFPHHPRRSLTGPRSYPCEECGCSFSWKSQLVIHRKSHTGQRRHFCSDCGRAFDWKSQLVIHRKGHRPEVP

| Variant | effect of a mutation on the interaction |
| --- | --- |
| G244E | with no effect |
| I678V | with no effect |
| P256L | disrupting interaction strength |
| N398S | with no effect |
